Key:
human OB-Rb = target: T1, human OB-Rb (Homo sapiens, UniProt P48357); assay: 125I-labeled mouse leptin pre-incubated with human CRP, binding to HEK293 cells stably transfected with human OB-Rb; details: in the presence of 2 ng/ml mouse leptin
T1 construct: expressed in transfected cells
T1 sequence (P48357 22-1165): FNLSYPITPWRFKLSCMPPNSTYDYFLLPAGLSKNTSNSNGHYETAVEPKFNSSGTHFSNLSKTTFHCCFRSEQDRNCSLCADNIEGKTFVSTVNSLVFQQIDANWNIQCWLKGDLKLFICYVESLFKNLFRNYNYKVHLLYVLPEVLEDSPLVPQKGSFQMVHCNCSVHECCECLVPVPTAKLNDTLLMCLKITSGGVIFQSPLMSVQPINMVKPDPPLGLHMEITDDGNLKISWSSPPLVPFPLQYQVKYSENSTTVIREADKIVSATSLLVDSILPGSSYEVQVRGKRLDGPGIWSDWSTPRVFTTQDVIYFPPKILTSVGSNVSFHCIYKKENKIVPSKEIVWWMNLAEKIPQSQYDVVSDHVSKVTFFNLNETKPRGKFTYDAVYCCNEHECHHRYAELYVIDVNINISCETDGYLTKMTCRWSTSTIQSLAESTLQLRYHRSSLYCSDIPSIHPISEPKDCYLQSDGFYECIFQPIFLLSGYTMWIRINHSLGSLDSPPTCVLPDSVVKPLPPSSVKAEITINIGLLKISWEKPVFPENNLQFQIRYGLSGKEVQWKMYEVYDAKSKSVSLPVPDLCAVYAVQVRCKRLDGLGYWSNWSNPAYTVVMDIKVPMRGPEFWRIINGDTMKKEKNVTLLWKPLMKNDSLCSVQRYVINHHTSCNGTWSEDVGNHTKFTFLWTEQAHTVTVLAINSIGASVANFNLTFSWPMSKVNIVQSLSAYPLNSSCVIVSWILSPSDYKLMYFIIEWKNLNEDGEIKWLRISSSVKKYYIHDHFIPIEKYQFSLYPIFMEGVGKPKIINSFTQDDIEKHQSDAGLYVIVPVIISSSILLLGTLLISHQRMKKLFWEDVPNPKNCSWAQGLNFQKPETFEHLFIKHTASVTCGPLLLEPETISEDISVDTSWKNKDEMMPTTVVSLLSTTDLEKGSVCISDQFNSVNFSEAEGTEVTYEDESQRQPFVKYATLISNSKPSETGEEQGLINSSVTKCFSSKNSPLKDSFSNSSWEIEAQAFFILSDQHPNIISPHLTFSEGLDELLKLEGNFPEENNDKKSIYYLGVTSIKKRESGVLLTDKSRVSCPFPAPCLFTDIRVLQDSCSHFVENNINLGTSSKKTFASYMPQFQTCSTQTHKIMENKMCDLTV
Procedure: FIG. 4B. Effects of human CRP on mouse leptin. […] The dashed line at the bottom right of the graph indicates ^125I-leptin bound when two thousand fold excess of non-labeled mouse leptin is added.
To examine if CRP binding interferes with the stability of human leptin to bind to its receptors, a HEK293 cell line stably transfected with the long-form human leptin receptor, OB—Rb, was used (17). Human leptin was iodinated with Na^125I using the lodogen method. Briefly, 15 μg of recombinant human leptin in 100 mM Phosphate buffer pH 7.5 were incubated with 1 mCi of carrier-free Na^125I (2200 Ci/mmol) in a glass tube containing 50 μg Iodogen. After 10-minute incubation at room temperature, the reaction was stopped with 100 μl 0.1% trifluoroacetic acid (TFA). The reaction mixture was immediately purified by reverse-phase HPLC. The separation employed a 5-minute isocratic step at 20% eluant B in A, followed by two consecutive 30 min linear gradients from 20 to 50%, then from 50 to 60% eluant B in A (where eluant A is water containing 0.1% TFA and eluant B is acetonitrile containing 0.1% TFA) at a flow rate of 1.5 ml/min. The ^125I-labeled leptin (˜2 ng/ml) was pre-incubated with various concentrations of human CRP in 1 ml of μ-MEM for 1 hour before added to the OBR-expressing HEK293 cells. […]

recombinant human leptin = target: T2, recombinant human leptin (Homo sapiens, UniProt P41159); assay: Immuno-precipitation assay of direct binding of human CRP and human leptin; details: leptin/CRP mixture and human serum; Western blot with anti-CRP
T2 construct: purchased AF Parlow of NHPP, Torrance, CA
T2 sequence (P41159 22-167): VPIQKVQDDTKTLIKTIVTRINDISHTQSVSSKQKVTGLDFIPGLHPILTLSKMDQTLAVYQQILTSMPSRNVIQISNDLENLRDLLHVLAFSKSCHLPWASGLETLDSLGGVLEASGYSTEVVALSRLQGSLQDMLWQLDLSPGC
Procedure: To explore a physical interaction between CRP and leptin, the direct binding of these proteins was determined by an immuno-precipitation assay. Rat CRP was purified from fresh rat serum to >95% purity employing a previously established affinity-purification protocol (20). […] The purified human- and rat-CRP proteins were pre-mixed with recombinant human and mouse leptin, respectively, before addition of antibodies specific for human- and mouse-leptin. The concentrations of CRP and leptin in the precipitation reaction were all within the physiological ranges that have been observed in humans or rats (11 & 15). In parallel experiments, recombinant leptin also was pre-mixed with human- or rat-serum to allow for direct interaction prior to immuno-precipitation. The protein precipitates obtained were subjected to Western blot assays using specific anti-CRP antibodies.

IC50 of human CRP for reducing 125I-labeled mouse leptin binding to receptor (human OB-Rb): greater than 64 μg/ml
co-precipitation of CRP with anti-human leptin antibody (recombinant human leptin): could pull down human CRP
Substance: human CRP: human C-reactive protein, purified preparation from a commercial source

— US20070218504A1, “HUMAN LEPTIN-DERIVED POLYPEPTIDES AND USES THEREOF” (UNIVERSITY OF PITTSBURGH, priority 2006, published 2007)
